According to publication PMC3234919 (The Journal of Biological Chemistry, 2011):
Substitutions are numbered along the chain they refer to. Names and notes keep the numbering of the source.

B1: human peroxiredoxin IV C51A mutant (residues 37-271 of the preprotein) (enzyme, UniProt Q13162 37-271, looked up)
chain: GWETEERPRTREEEAHFYAGGQVYPGEASRVSVADHSLHLSKAKISKPAPYWEGTAVIDGEFKELKLTDYRGKYLVFFFYPLDFTFVCPTEIIAFGDRLEEFRSINTEVVACSVDSQFTHLAWINTPRRQGGLGPIRIPLLSDLTHQISKDYGVYLEDSGHTLRGLFIIDDKGILRQITLNDLPVGRSVDETLRLVQAFQYTDKHGEVCPAGWKPGSETIIPDPAGKLKYFDKLN
B2: human peroxiredoxin IV C245A resolving cysteine mutant, reduced (enzyme, UniProt Q13162 37-271, looked up)
chain: B1 chain with A15C, C209A
B3: human peroxiredoxin IV C245A resolving cysteine mutant, sulfenylated at the peroxidatic cysteine (enzyme, UniProt Q13162 37-271, looked up)
chain: B1 chain with A15C, C209A
modifications: cysteine sulfenic acid at Cys-124 (peroxidatic cysteine)
B4: human peroxiredoxin IV, wild type, full-length mature protein (residues 37-271 of the preprotein) (enzyme, UniProt Q13162 37-271, looked up)
chain: B1 chain with A15C
B5: PrxIII (enzyme, UniProt P30048 62-256, looked up)
chain: APAVTQHAPYFKGTAVVNGEFKDLSLDDFKGKYLVLFFYPLDFTFVCPTEIVAFSDKANEFHDVNCEVVAVSVDSHFSHLAWINTPRKNGGLGHMNIALLSDLTKQISRDYGVLLEGSGLALRGLFIIDPNGVIKHLSVNDLPVGRSVEETLRLVKAFQYVETHGEVCPANWTPDSPTIKPSPAASKEYFQKVNQ

What was measured:
crystal structure [1] = target: the molecule itself; assay: crystal structure
crystal structure [2] = target: the molecule itself; assay: crystal structure; remark: listed apart in the source
SEC = target: the molecule itself; assay: SEC

| Protein | stoichiometry N (crystal structure [1]) | stoichiometry N (SEC) | further results |
| --- | --- | --- | --- |
| B1 | 10 |  |  |
| B2 | 10 |  |  |
| B3 |  |  | stoichiometry N (crystal structure [2]): 10 |
| B4 |  | 10 |  |
| B5 |  | 2 |  |
